Test: soluble on expression in E. coli; label from the status in PepcDB or PDB records

Sequence | soluble on expression in E. coli
MQSLTTALENLLRHLSQEIPATPGIRVIDIPFPLKDAFDALSWLASQQTYPQFYWQQRNGDEEAVVLGAITRFTSLDQAQRFLRQHPEHADLRIWGLNAFDPSQGNLLLPRLEWRRCGGKATLRLTLFSESSLQHDAIQAKEFIATLVSIKPLPGLHLTTTREQHWPDKTGWTQLIELATKTIAEGELDKVVLARATDLHFASPVNAAAMMAASRRLNLNCYHFYMAFDGENAFLGSSPERLWRRRDKALRTEALAGTVANNPDDKQAQQLGEWLMADDKNQRENMLVVEDICQRLQADTQTLDVLPPQVLRLRKVQHLRRCIWTSLNKADDVICLHQLQPTAAVAGLPRDLARQFIARHEPFTREWYAGSAGYLSLQQSEFCVSLRSAKISGNVVRLYAGAGIVRGSDPEQEWQEIDNKAAGLRTLLQME | soluble
MQSVNRKSNKGATANIDAQEPFSVLLMGIDTGDLGRTEQGRSDTTMVVTINPKENKSTMISLDRDILTDIVGNDTQDKLNHAYAFGGAEMAINTVQELLDIPIHHYVSINMKGLKDLIDAVGGIEVDNTIGEFTLDGITVPAGKIKLDGTTGLAYARMRHEDPEGDVGRQRRQREVVEKIVRKVMSFDGVSKYRKILDAVEANVKTDLTWDDMMDIQSKYLSAFKTIDSEQLQGYSATIDDIYYQVLDPNSLYKTQTTLRKQLGLKEHASEREKDLAFYNQFSYAVTDTALIGESGDSSANSSTSSSSTADTTAGQTEYNGNTQQAAEGTYDPNTYVDPNAYTDPNAYADPNTYVDPNAPQYLEHHHHHH | soluble
MQTASVPAGIAERRTRAWAPYIDAKLGFRNHWYPVRLSAEVAEASPVPVQLLGEKVLLNRVDGVVHAIADRCLHRGVTLSDKVECYSKATISCWYHGWTYRWDNGKLVDILTNPTSVQIGRHALKTYPVREEKGLVFLFVGDQEPHDLAEDVPPGFLDADLAVHGQHRVVDANWRMGVENGFDAGHVFIHKSSILLDGNDIALPLGFAPGDPEQLTRSVTGEGAPKGVFDLLGEHSVPIFEATIEGQPAIQGHMGSKMVAISISVWLPGVLKVDPFPDPTLTQFEWYVPIDEGHHLYLQMLGRRVGSEEEARSFEAEFREKWVELALNGFNDDDILARRSMEPFYADDRGWREEVLFESDRAIIEWRRLASQYNRGIQTRDVRHHHHHH | soluble
MQTEFLTGAPTRSAAFPVTGGDWGTAGILQTPTARMNDAGEASLSMSHVSPYTRLNFALQPLDWLEIGFRYTDVSNQPYGPVSLSGTQSYKDKSIDAKIRLWRESAYLPDVAVGFRDIAGSGLFSGEYLVASKRTGPFDWSVGLGWGYMGARGNLRNPLSMISRRFDDRANSATPNGGELGYGSWFRGRVSPFGGVQYQTPDERLILKAEYDGNDYRHEPFGQVLKERSPFNFGAVYRATRNIDLSVGFERGTRVMFGVSLHGNLKRATMPKLGNPPPVPVTQPAANAGPRTHAAGAPTRGGRSAVASTPRIEGASPSPFDRDWSDTVAQLQAQTNWHVRSIRALGMDLVIEFDDVDAFYLQDQIDRIATILNRDAPLNVRTFHVVALTHGVPVADYQVQRTQWFASRTRALVPSEVAPATTLGRPLTNQSIDMLPPLFEQRPRAFVLSVGPGYQQTLGGPNGFLLYQISANAYGELRMPGGAWLGGELNVGLVDNYGKFTYTADSKLPRVRTYLREYLTTSRVTLPLLQLTKIGRLGNDQFYSVYGGLLESMFAGVGVEWLYRPAHSRLAIGVDVNAVRQRGFRQDFSMRGYKTLTGHVTAYWDTGWQGVQINLSVGQYLAKDKGATLDISRRFRNGVVIGAYATKTNVSPAQFGEGSFDKGIYVTIPFDAMMTRSSSSIANLRWNPVTRDGGAKLDRRYPLYDLTDMGERRSLWYAPPDGAVSPLEHHHHHH | not soluble
MQTPKPTLELLTCDAAYRENPTALFHQVCGDRPATLLLESADIDSKDDLKSLLLVDSALRITALGDTVTIQALSDNGASLLPLLDTALPAGVENDVLPAGRVLRFPPVSPLLDENARLCSLSVFDAFRLLQGVVNIPTQEREAMFFGGLFAYDLVAGFEALPHLEAGNNCPDYCFYLAETLMVIDHQKKSTRIQASLFTASDREKQRLNARLAYLSQQLTQPAPPLPVTPVPDMRCECNQSDDAFGAVVRQLQKAIRAGEIFQVVPSRRFSLPCPSPLAAYYVLKKSNPSPYMFFMQDNDFTLFGASPESSLKYDAASRQIEIYPIAGTRPRGRRADGTLDRDLDSRIELDMRTDHKELSEHLMLVDLARNDLARICTPGSRYVADLTKVDRYSYVMHLVSRVVGELRHDLDALHAYRACMNMGTLSGAPKVRAMQLIADAEGQRRGSYGGAVGYFTAHGDLDTCIVIRSALVENGIATVQAGAGIVLDSVPQSEADETRNKARAVLRAIATAHHAQETF | soluble
MQTSDLLKKVRRIEIKARGLSRQIFAGQYHSAFRGRGMAFSEVREYTVGDDVRDIDWNVTARYARPYVKVFEEERELTVMLMVDMSGSLSFGTEVETKRELTAEVAATLAFSAIQNNDKIGVLFFTDRIEKYVPPAKGKKHILYIIRELLEFRPQSRATDLSVPLSYLTRLVKKRCTAFLISDFQSEKDSYEKTLLMSARKHDIVAIRIFDRREADLPNVGLMRFRDAETGQTHWVDTADSSVRKAYADAYERRQVALAVLLKRCGVDTTEIRTGQDFVQQLLILFKKRS | not soluble
MQVDINVNVVEKPTGAIMFGAGYSDREGIILNGSIAQNNILGTGNFLSLQVNTGSVNKVISASFNNPYYTINGVSLGLEAFKRDINTRSLSSVGMFNTDTTGANIRFGIPVAENDIVSLGLGYEHTKIDLRDDSPQRFKDFVDQFGKTSNNLPITLSWARDRRNSAIWTTSGMTQRLFGEFGLPFGDLNYYKVSYEQRWFFPVTKMFTLMLNGEVGVGDGYSDKPLPFFKNFFAGGFNSVRGYNINTLGPRDSDDRVLGGSKRIVGNIEVLFPVPFMKEDKSVRLSAFADGGTIVNSFSGLGFDDFRYSAGLAATWISPMGPLKFSVAQPLNNQSGDKLQRFQFQFGQTFLEHHHHHH | not soluble
MQVSKRKSLCKICGNPAFGNHFGVLSCRACAAFFRRTNVDGETFCPIGNCKIDKHGKFYCKKCRLRICLEAGMDANKFQHDRDLISTSTSESSDSSGSFSFSQRSKVPKSMANFLGRPAFILSCEPDKASKVKTIVDVTFLINQAFDIFGNVDRKRFSSNSNLGRMTKKFEDLQNEKSSNLSTIKVLGLKESMIFWEQDFLRTARWLSHFDEFQELPLSIRMQILKVAWILWGRLDKLVKTANERKNQQLNQNFYMIGKDVGIDIGNFEVDVSWCTNYSKEQLAYYLDCHHDEPFNIIVDAISDLKPSDMELNFMLLELCLAHAGKQHQGDVLMFTDRLLEVVSNELHDYYQSEQISNYSSRITKMMKINNLIRRNLFERLERQAVAKVFNIISVHFSHPDMFCNAGF | not soluble
MQYCELDLSGQWLDTVYCEENFSDFVFIKFLNPSQFEEKIYCYTLHITKRTLENKRLLLYYEDEFKKHGHDINELVGDGIILRSCWNPRQ | soluble
MQYEKVKPPENGEKIRYENGKLIVPDNPIIPYFEGDGIGKDVVPAAIRVLDAAADKIGKEVVWFQVYAGEDAYKLYGNYLPDDTLNAIKEFRVALKGPLTTPVGGGYRSLNVTIRQVLDLYANVRPVYYLKGVPSPIKHPEKVNFVIFRENTEDVYAGIEWPRGSEEALKLIRFLKNEFGVTIREDSGIGIKPISEFATKRLVRMAIRYAIENNRKSVTLVHKGNIMKYTEGAFRDWGYEVAKQEFGEYCITEDELWDKYGGKQPEGKIVVKDRIADNMFQQILTRTDEYDVIALPNLNGDYLSDAAAALIGGLGIAPGSNIGDGIGVFEPVHGSAPKYAGQNKVNPTAEILTGALMFEYIGWKDASEMIKKAVEMTISSGIVTYDIHRHMGGTKVGTREFAEAVVENLQSL | soluble
MRAIDLNSDLGESFGAWSMGDDAAMLDIVTSANVACGFHAGDPAGILRTLKAAAAKNVTIGAHVSYPDKVGFGRRNMDVASDELTADVIYQIGSLQGLAKAAGTSVRYVKPHGALYNTIAHDRRQAMAVIEAIRAIDPALVLVALAGSTLIELARSEGLQCIAEAFADRAYTPQGTLVSRREPGAVLHDPELVAQRMLRLVQSGSIEAIDGSLVRIEADSICVHGDSPAAVEMARELRRVLEQASTSLQPFAGKRS | soluble
MRAIDLNSDLGESFGAWSMGDDAAMLDIVTSANVACGFHAGDPAGILRTLKAAAAKNVTIGAHVSYPDKVGFGRRNMDVASDELTADVIYQIGSLQGLAKAAGTSVRYVKPHGALYNTIAHDRRQAMAVIEAIRAIDPALVLVALAGSTLIELARSEGLQCIAEAFADRAYTPQGTLVSRREPGAVLHDPELVAQRMLRLVQSGSIEAIDGSLVRIEADSICVHGDSPAAVEMARELRRVLEQASTSLQPFAGKRSLEHHHHHH | not soluble
MRATEDHTIFDRGVGQRDQLQRLWTPYRMNYLAEAPVKRDPNSSASPAQPFTEIPQLSDEEGLVVARGKLVYAVLNLYPYNPGHLMVVPYRRVSELEDLTDLESAELMAFTQKAIRVIKNVSRPHGFNVGLNLGTSAGGSLAEHLHVHVVPRWGGDANFITIIGGSKLEHHHHHH | not soluble
MRATTIEEPARQVPLYGEYEVVVLGGGPAGIIAAASAARAGRKTLLIERYGFLGGMGTAAGVTNFCGLHGNVYGQAHRLVQGLASELLARIDLLNGLNTPHLILGKVFAQAYDTAAYKIAADELLASHKVNILFHALGAGVVMGDNSRIDALMVETKAGRQAVRSEIFIDCSGDGDLAVWAGAPFEVGDEHGHPLYPSMMLRLNNIDPEKAGEAWRTIPQLMEKALAAGTHKFPRKSAIVRPQKSGIEWRVNFTQVAREDGHAINGIEPDDLTRGEIEGRRQALAAFEFLRTVPGFEKSYIVDLPPQLGIRETRRIKGGYQLSGEDVLGCASFEDSIGVNGWPIEAHVPGDVIFTFPPIPESRGYNELPYRMLVPEGVDNLLVAGRCASMTHEGQSAARVSGACFVMGEAAGSAAALALSGNRIPRDIPIEKLQETLKQQGAFIGRDQPVPEGLLEHHHHHH | not soluble
MRCPKCNYHKSSVVDSRQAEDGNTIRRRRECEQCHTRFTTFERVEELPLLVIKKDGTREQFSRDKILNGVVQSAQKRPVSSTDIENVISRIEQEVRTTYENEVSSTAIGNLVMDELAELDEITYVRFASVYKSFKDVDEIEELLQQITNRVRGKKKRLNNDETN | not soluble
MRCPNCNSLDTQVKDSRPTEDSSVIRRRRVCIACNFRFTTFERVQLRELIVIKRNGRRVPFDRDKLMRSVQISLRKRPVDPERVEQMVSAIVRELESGGEAEISSETIGESVMDHLRKLDDVAYVRFASVYRNFREAKDFEAVLGELSHEDEARAALVRK | not soluble
